Like-named read-outs stand apart in the source and are kept apart here.
What was measured:
[1] = biological target: T1, Recombinant human IL6 protein with C-terminal six-histidine tag (human, UniProt P05231 29-212); assay: homogeneous split-luciferase sandwich with RB073-449-1, signal rises with IL6
T1 construct: also called human interleukin 6

[2] = biological target: Large subunit-rSCFV5 fusion protein; assay: cell-based or functional assay
[3] = biological target: Large subunit-rSCFV5 fusion protein; assay: cell-based or functional assay; remark: listed apart in the source
[4] = biological target: Large subunit-rSCFV5 fusion protein; assay: cell-based or functional assay; remark: listed apart in the source
[5] = biological target: Large subunit-rSCFV5 fusion protein; assay: cell-based or functional assay; remark: listed apart in the source
[6] = biological target: Large subunit-rSCFV5 fusion protein; assay: cell-based or functional assay; remark: listed apart in the source
[7] = biological target: T1, Recombinant human IL6 protein with …; assay: homogeneous split-luciferase sandwich with OL-453, signal rises with IL6

B1: fusion protein OL-453 of the large subunit with human IL6 SCFV antibody 453 (other)
chain: VFTLEDFVGDWEQTAAYNLDQVLEQGGVSSLLQNLAVSVTPIQRIVRSGENALKIDIHVIIPYEGLSADQMAQIEEVFKVVYPVDDHHFKVILPYGTLVIDGVTPNMLNYFGRPYEGIAVFDGKKITVTGTLWNGNKIIDERLITPDGSMLFRVTINSGSSGGGGSGGGGSGGQAVLTQPSSVSKSLGQSVSITCSGSNIGSSAVGWYQQLPGSGLKTIIYSTSSRPSGVPDRFSGSKSGNTATLTISSLQAEDEADYYCATGDRGNYGGVFGSGTRLTVLSSGGGGSGGGGGGSSRSSQVQLQESGPSLVKPSQTLSLTCTVSGFSLTSYGVGWVRQAPGKTPEWLGGIDRDGDMSYNPALKSRLSITRDTSKSQVSLSLRSVATEDTAVYYCARSSYDSHYYGDYYDVDVWGRGLLVTVSSGQAGHHHHHH
notes: also called large subunit fusion protein OL-453
[1]
  binding result: binds

B2: rSCFV18-small subunit P114 fusion protein (other)
chain: AHHHHHHGSGDIVLTQTPSPVSAAVGGTVSINCQSSQSVYKNNRLSWYQQKPGQPPKFLIYDTSKLASGVPSRFSGSGSGTQFTLTISDLECDDAATYYCAGGYSNNIGAFGGGTEVVVKSSGGGGSGGGGGGSSRSSQSLEESRGRLVTPGGSLTLTCSVSGFSLSIYNMGWVRQAPGEGLEWIGVIGSSGNTYYASWAKGRFTISRNTNDNTVDLKITSPTTGDTATYFCARGFSSFDIWGPGTLVTVSSGGGGSGGGGSGGGGSVTGYRLFEEIL
[2]
  Signal-to-noise ratio at 1000 pg/ml: 1.44
[3]
  Signal-to-noise ratio: 1.9
[4]
  Signal-to-noise ratio at 1000 pg/ml: 3.8
[5]
  Signal-to-noise ratio: 12.2
[6]
  Signal-to-noise ratio at 1000 pg/ml: 3.8

B3: rSCFV18-RB073 fusion protein (other)
chain: AHHHHHHGSGDIVLTQTPSPVSAAVGGTVSINCQSSQSVYKNNRLSWYQQKPGQPPKFLIYDTSKLASGVPSRFSGSGSGTQFTLTISDLECDDAATYYCAGGYSNNIGAFGGGTEVVVKSSGGGGSGGGGGGSSRSSQSLEESRGRLVTPGGSLTLTCSVSGFSLSIYNMGWVRQAPGEGLEWIGVIGSSGNTYYASWAKGRFTISRNTNDNTVDLKITSPTTGDTATYFCARGFSSFDIWGPGTLVTVSSGGGGSGGGGSGGGGSVEGYRLFDRKS
[2]
  Signal-to-noise ratio at 1000 pg/ml: 38.9
[4]
  Signal-to-noise ratio at 1000 pg/ml: 14.5
[5]
  Signal-to-noise ratio: 48

B4: fusion protein RB073-449-1 of the small subunit peptide RB073 with human IL6 SCFV antibody 449-1 (other)
chain: VEGYRLFDRKSGGGGSGGGGSGGGGSQSALTQPSSVSKSLGQSVSITCSGSSSNVGYGNYVSWYQQVPGSAPKFLIYGATSRASGVPARFSGSRSGNTATLSISSLQAEDEADYYCASYDSSSYGVFGSGTTLTVLSSGGGGSGGGGGGSSRSSQVRLQESGPSLVKPSQTLSLTCTVSGFSLTNYPVGWVRQAPGKALEWLGGISSGGGTAYNPALKSRLSFTRDTSKNQVSLSLSSVTSEDTAVYYCTRGNGDYVLRYGADVWGRGLLVTVSSGSGHHHHHH
notes: also called small subunit fusion protein RB073-449-1
[7]
  binding result: binds

Reference: patent EP4700040A1 (Shenzhen Loggene Life Science & Technology Co., Ltd., dated 2024)
